Among the data in article PMC10853069 are MEI-2*tubulin crosslinked band, percent of the WT fragment, MEI-2*tubulin crosslinked band, percent of WT and Kd values, retold here.

Experiment [1] has as its target Taxol-stabilized microtubules polymerized from purified porcine tubulin (porcine) (UniProt P02550). Description: cross-linking.
Experiment [2] has the same target. Description: co-sedimentation.

In experiment [1], “MBP-MEI-2 1–90 K77A-K78A (from UniProt O44740 1-90) (domain or fragment)” gave an MEI-2*tubulin crosslinked band, percent of the WT fragment of 84%.

“MBP-MEI-2 1–90 K77D-K78D (from UniProt O44740 1-90) (domain or fragment)”: the MEI-2*tubulin crosslinked band, percent of the WT fragment in experiment [1] was found to be 87%.

In the case of “MBP-MEI-2 full length 6KA (K8A-K9A K77A-K78A K274A-K275A) (from UniProt O44740 1-280) (natural protein)”, the MEI-2*tubulin crosslinked band, percent of WT in experiment [1] came to 53%. For the same substance, the Kd in experiment [2] was determined as 3.68 µM.

The substance “MBP-MEI-2 full length 6KD (K8D-K9D K77D-K78D K274D-K275D) (from UniProt O44740 1-280) (natural protein)” had an MEI-2*tubulin crosslinked band, percent of WT in experiment [1] of 6%. Besides, in experiment [2], the Kd worked out at 6.15 µM.

In general, Kd refers to a measure of binding affinity in units of concentration. High values mean a looser complex, low ones a tighter complex.
